According to PMC5923425, “Structural analysis of human ARS2 as a platform for co-transcriptional RNA sorting” (Nature Communications, 2018):

B1: EGFP–ARS2 wt [human] / ZCCHC8 [human (endogenous in HEK 293T/17)] (parent complex)
chain 1: MGDSDDEYDRRRRDKFRRERSDYDRSRERDERRRGDDWNDREWDRGRERRSRGEYRDYDRNRRERFSPPRHELSPPQKRMRRDWDEHSSDPYHSGYEMPYAGGGGGPTYGPPQPWGHPDVHIMQHHVLPIQARLGSIAEIDLGVPPPVMKTFKEFLLSLDDSVDETEAVKRYNDYKLDFRRQQMQDFFLAHKDEEWFRSKYHPDEVGKRRQEARGALQNRLRVFLSLMETGWFDNLLLDIDKADAIVKMLDAAVIKMEGGTENDLRILEQEEEEEQAGKPGEPSKKEEGRAGAGLGDGERKTNDKDEKKEDGKQAENDSSNDDKTKKSEGDGDKEEKKEDSEKEAKKSSKKRNRKHSGDDSFDEGSVSESESESESGQAEEEKEEAEALKEKEKPKEEEWEKPKDAAGLECKPRPLHKTCSLFMRNIAPNISRAEIISLCKRYPGFMRVALSEPQPERRFFRRGWVTFDRSVNIKEICWNLQNIRLRECELSPGVNRDLTRRVRNINGITQHKQIVRNDIKLAAKLIHTLDDRTQLWASEPGTPPLPTSLPSQNPILKNITDYLIEEVSAEEEELLGSSGGAPPEEPPKEGNPAEINVERDEKLIKVLDKLLLYLRIVHSLDYYNTCEYPNEDEMPNRCGIIHVRGPMPPNRISHGEVLEWQKTFEEKLTPLLSVRESLSEEEAQKMGRKDPEQEVEKFVTSNTQELGKDKWLCPLSGKKFKGPEFVRKHIFNKHAEKIEEVKKEVAFFNNFLTDAKRPALPEIKPAQPPGPAQSLTPGLPYPHQTPQGLMPYGQPRPPILGYGAGAVRPAVPTGGPPYPHAPYGAGRGNYDAFRGQGGYPGKPRNRMVRGDPRAIVEYRDLDAPDDVDFF
chain 2: MAAEVYFGDLELFEPFDHPEESIPKPVHTRFKDDDGDEEDENGVGDAELRERLRQCEETIEQLRAENQELKRKLNILTRPSGILVNDTKLDGPILQILFMNNAISKQYHQEIEEFVSNLVKRFEEQQKNDVEKTSFNLLPQPSSIVLEEDHKVEESCAIKNNKEAFSVVGSVLYFTNFCLDKLGQPLLNENPQLSEGWEIPKYHQVFSHIVSLEGQEIQVKAKRPKPHCFNCGSEEHQMKDCPMPRNAARISEKRKEYMDACGEANNQNFQQRYHAEEVEERFGRFKPGVISEELQDALGVTDKSLPPFIYRMRQLGYPPGWLKEAELENSGLALYDGKDGTDGETEVGEIQQNKSVTYDLSKLVNYPGFNISTPRGIPDEWRIFGSIPMQACQQKDVFANYLTSNFQAPGVKSGNKRSSSHSSPGSPKKQKNESNSAGSPADMELDSDMEVPHGSQSSESFQFQPPLPPDTPPLPRGTPPPVFTPPLPKGTPPLTPSDSPQTRTASGAVDEDALTLEELEEQQRRIWAALEQAESVNSDSDVPVDTPLTGNSVASSPCPNELDLPVPEGKTSEKQTLDEPEVPEIFTKKSEAGHASSPDSEVTSLCQKEKAELAPVNTEGALLDNGSVVPNCDISNGGSQKLFPADTSPSTATKIHSPIPDMSKFATGITPFEFENMAESTGMYLRIRSLLKNSPRNQQKNKKASE
B2: EGFP–ARS2 wt [human] / hMTR4 [human (endogenous in HEK 293T/17)] (parent complex)
chain 1: B1 chain 1
chain 2: MADAFGDELFSVFEGDSTTAAGTKKDKEKDKGKWKGPPGSADKAGKRFDGKLQSESTNNGKNKRDVDFEGTDEPIFGKKPRIEESITEDLSLADLMPRVKVQSVETVEGCTHEVALPAEEDYLPLKPRVGKAAKEYPFILDAFQREAIQCVDNNQSVLVSAHTSAGKTVCAEYAIALALREKQRVIFTSPIKALSNQKYREMYEEFQDVGLMTGDVTINPTASCLVMTTEILRSMLYRGSEVMREVAWVIFDEIHYMRDSERGVVWEETIILLPDNVHYVFLSATIPNARQFAEWICHLHKQPCHVIYTDYRPTPLQHYIFPAGGDGLHLVVDENGDFREDNFNTAMQVLRDAGDLAKGDQKGRKGGTKGPSNVFKIVKMIMERNFQPVIIFSFSKKDCEAYALQMTKLDFNTDEEKKMVEEVFSNAIDCLSDEDKKLPQVEHVLPLLKRGIGIHHGGLLPILKETIEILFSEGLIKALFATETFAMGINMPARTVLFTNARKFDGKDFRWISSGEYIQMSGRAGRRGMDDRGIVILMVDEKMSPTIGKQLLKGSADPLNSAFHLTYNMVLNLLRVEEINPEYMLEKSFYQFQHYRAIPGVVEKVKNSEEQYNKIVIPNEESVVIYYKIRQQLAKLGKEIEEYIHKPKYCLPFLQPGRLVKVKNEGDDFGWGVVVNFSKKSNVKPNSGELDPLYVVEVLLRCSKESLKNSATEAAKPAKPDEKGEMQVVPVLVHLLSAISSVRLYIPKDLRPVDNRQSVLKSIQEVQKRFPDGIPLLDPIDDMGIQDQGLKKVIQKVEAFEHRMYSHPLHNDPNLETVYTLCEKKAQIAIDIKSAKRELKKARTVLQMDELKCRKRVLRRLGFATSSDVIEMKGRVACEISSADELLLTEMMFNGLFNDLSAEQATALLSCFVFQENSSEMPKLTEQLAGPLRQMQECAKRIAKVSAEAKLEIDEETYLSSFKPHLMDVVYTWATGATFAHICKMTDVFEGSIIRCMRRLEELLRQMCQAAKAIGNTELENKFAEGITKIKRDIVFAASLYL
B3: EGFP–ARS2 wt [human] / RBM7 [human (endogenous in HEK 293T/17)] (parent complex)
chain 1: B1 chain 1
chain 2: MGAAAAEADRTLFVGNLETKVTEELLFELFHQAGPVIKVKIPKDKDGKPKQFAFVNFKHEVSVPYAMNLLNGIKLYGRPIKIQFRSGSSHAPQDVSLSYPQHHVGNSSPTSTSPSRYERTMDNMTSSAQIIQRSFSSPENFQRQAVMNSALRQMSYGGKFGSSPLDQSGFSPSVQSHSHSFNQSSSSQWRQGTPSSQRKVRMNSYPYLADRHYSREQRYTDHGSDHHYRGKRDDFFYEDRNHDDWSHDYDNRRDSSRDGKWRSSRH
B4: EGFP–ARS2 wt [human] / ZFC3H1 [human (endogenous in HEK 293T/17)] (parent complex)
chain 1: B1 chain 1
chain 2: MATADTPAPASSGLSPKEEGELEDGEISDDDNNSQIRSRSSSSSSGGGLLPYPRRRPPHSARGGGSGGGGGSSSSSSSSQQQLRNFSRSRHASERGHLRGPSSYRPKEPFRSHPPSVRMPSSSLSESSPRPSFWERSHLALDRFRFRGRPYRGGSRWSRGRGVGERGGKPGCRPPLGGGAGSGFSSSQSWREPSPPRKSSKSFGRSPSRKQNYSSKNENCVEETFEDLLLKYKQIQLELECINKDEKLALSSKEENVQEDPKTLNFEDQTSTDNVSITKDSSKEVAPEEKTQVKTFQAFELKPLRQKLTLPGDKNRLKKVKDGAKPLSLKSDTTDSSQGLQDKEQNLTRRISTSDILSEKKLGEDEEELSELQLRLLALQSASKKWQQKEQQVMKESKEKLTKTKTVQQKVKTSTKTHSAKKVSTTAKQALRKQQTKAWKKLQQQKEQERQKEEDQRKQAEEEERRKREEEIRKIRDLSNQEEQYNRFMKLVGGKRRSRSKSSDPDLRRSLDKQPTDSGGGIYQYDNYEEVAMDTDSETSSPAPSPVQPPFFSECSLGYFSPAPSLSLPPPPQVSSLPPLSQPYVEGLCVSLEPLPPLPPLPPLPPEDPEQPPKPPFADEEEEEEMLLREELLKSLANKRAFKPEETSSNSDPPSPPVLNNSHPVPRSNLSIVSINTVSQPRIQNPKFHRGPRLPRTVISLPKHKSVVVTLNDSDDSESDGEASKSTNSVFGGLESMIKEARRTAEQASKPKVPPKSEKENDPLRTPEALPEEKKIEYRLLKEEIANREKQRLIKSDQLKTSSSSPANSDVEIDGIGRIAMVTKQVTDAESKLKKHRILLMKDESVLKNLVQQEAKKKESVRNAEAKITKLTEQLQATEKILNVNRMFLKKLQEQIHRVQQRVTIKKALTLKYGEELARAKAVASKEIGKRKLEQDRFGPNKMMRLDSSPVSSPRKHSAELIAMEKRRLQKLEYEYALKIQKLKEARALKAKEQQNISPVVEEEPEFSLPQPSLHDLTQDKLTLDTEENDVDDEILSGSSRERRRSFLESNYFTKPNLKHTDTANKECINKLNKNTVEKPELFLGLKIGELQKLYSKADSLKQLILKTTTGITEKVLHGQEISVDVDFVTAQSKTMEVKPCPFRPYHSPLLVFKSYRFSPYYRTKEKLPLSSVSYSNMIEPDQCFCRFDLTGTCNDDDCQWQHIQDYTLSRKQLFQDILSYNLSLIGCAETSTNEEITASAEKYVEKLFGVNKDRMSMDQMAVLLVSNINESKGHTPPFTTYKDKRKWKPKFWRKPISDNSFSSDEEQSTGPIKYAFQPENQINVPALDTVVTPDDVRYFTNETDDIANLEASVLENPSHVQLWLKLAYKYLNQNEGECSESLDSALNVLARALENNKDNPEIWCHYLRLFSKRGTKDEVQEMCETAVEYAPDYQSFWTFLHLESTFEEKDYVCERMLEFLMGAAKQETSNILSFQLLEALLFRVQLHIFTGRCQSALAILQNALKSANDGIVAEYLKTSDRCLAWLAYIHLIEFNILPSKFYDPSNDNPSRIVNTESFVMPWQAVQDVKTNPDMLLAVFEDAVKACTDESLAVEERIEACLPLYTNMIALHQLLERYEAAMELCKSLLESCPINCQLLEALVALYLQTNQHDKARAVWLTAFEKNPQNAEVFYHMCKFFILQNRGDNLLPFLRKFIASFFKPGFEKYNNLDLFRYLLNIPGPIDIPSRLCKGNFDDDMFNHQVPYLWLIYCLCHPLQSSIKETVEAYEAALGVAMRCDIVQKIWMDYLVFANNRAAGSRNKVQEFKFFTDLVNRCLVTVPARYPIPFSSADYWSNYEFHNRVIFFYLSCVPKTQHSKTLERFCSVMPANSGLALRLLQHEWEESNVQILKLQAKMFTYNIPTCLATWKIAIAAEIVLKGQREVHRLYQRALQKLPLCASLWKDQLLFEASEGGKTDNLRKLVSKCQEIGVSLNELLNLNSNKTESKNH
B5: EGFP–ARS2 wt [human] / NCBP3 (endogenous) [human (endogenous in HEK 293T/17)] (parent complex)
chain 1: B1 chain 1
chain 2: MAAVRGLRVSVKAEAPAGPALGLPSPEAESGVDRGEPEPMEVEEGELEIVPVRRSLKELIPDTSRRYENKAGSFITGIDVTSKEAIEKKEQRAKRFHFRSEVNLAQRNVALDRDMMKKAIPKVRLETIYICGVDEMSTQDVFSYFKEYPPAHIEWLDDTSCNVVWLDEMTATRALINMSSLPAQDKIRSRDASEDKSAEKRKKDKQEDSSDDDEAEEGEVEDENSSDVELDTLSQVEEESLLRNDLRPANKLAKGNRLFMRFATKDDKKELGAARRSQYYMKYGNPNYGGMKGILSNSWKRRYHSRRIQRDVIKKRALIGDDVGLTSYKHRHSGLVNVPEEPIEEEEEEEEEEEEEEEEDQDMDADDRVVVEYHEELPALKQPRERSASRRSSASSSDSDEMDYDLELKMISTPSPKKSMKMTMYADEVESQLKNIRNSMRADSVSSSNIKNRIGNKLPPEKFADVRHLLDEKRQHSRPRPPVSSTKSDIRQRLGKRPHSPEKAFSSNPVVRREPSSDVHSRLGVPRQDSKGLYADTREKKSGNLWTRLGSAPKTKEKNTKKVDHRAPGAEEDDSELQRAWGALIKEKEQSRQKKSRLDNLPSLQIEVSRESSSGSEAES

Variants of: B1
Assay: EGFP pull down, LC–MS/MS (AP–MS, TMT labelled); HEK 293T/17 cells; three independent affinity purifications per bait; read off a plot

Row | screen value | Variant
1 | ~-1.7 | chain 1 K719A, chain 1 K722A, chain 1 K734A

Variants of: B2
Assay: as above

Row | screen value | Variant
2 | ~-2.7 | chain 1 K719A, chain 1 K722A, chain 1 K734A

Variants of: B3
Assay: as above

Row | screen value | Variant
3 | ~-1.8 | chain 1 K719A, chain 1 K722A, chain 1 K734A

Variants of: B4
Assay: as above

Row | screen value | Variant
4 | ~-2.8 | chain 1 K719A, chain 1 K722A, chain 1 K734A

Variants of: B5
Assay: as above

Row | screen value | Variant
5 | ~-3.1 | chain 1 K719A, chain 1 K722A, chain 1 K734A
